What was measured:
[1] = target: human CD47 on the cell surface (human); assay: cell binding to red blood cells in a 1:10 mixture of HT1080 cells and red blood cells
[2] = target: human CD47 on the cell surface (human); assay: cell binding to HT1080 tumor cells in a 1:10 mixture with red blood cells

Substance: monospecific anti-CD47 mAb 5F9 (antibody)
- EC50 [1]: < 100 pM
- EC50 [2]: < 100 pM

Source: patent publication US20210179716A1
